# Reference: the supplement of paper PMC10065799, “High-throughput profiling of sequence recognition by tyrosine kinases and SH2 domains using bacterial peptide display” (eLife, 2023)
# Tests used:
# [1] = target: Grb2 SH2 (UniProt P62993); experiment: SH2 binding enrichment of the phosphorylated peptide, bacterial display (enrichment ratio); higher = better substrate or ligand; peptides without Tyr show the background
# [2] = target: SHP2-C SH2; experiment: as above
# [3] = target: c-Src SH2; experiment: as above
# [4] = system: Fer (mouse); experiment: phosphorylation enrichment, bacterial display (enrichment ratio); higher = better substrate or ligand; peptides without Tyr show the background
# [5] = target: EPHB1 (UniProt P54762); experiment: as above
# [6] = target: FGFR3 (UniProt P22607); experiment: as above
# [7] = target: Jak2 (UniProt O60674); experiment: as above
# [8] = target: Fes (UniProt P07332); experiment: as above
# [9] = system: c-Src; experiment: as above
# [10] = system: c-Abl (mouse); experiment: as above
# [11] = target: Fyn (UniProt P06241); experiment: as above
# [12] = target: FGFR1 (UniProt P11362); experiment: as above
# [13] = target: EPHB2 (UniProt P29323); experiment: as above
# [14] = system: AncSZ; experiment: as above
# [15] = target: MERTK (UniProt Q12866); experiment: as above
# [16] = target: Hck (UniProt P08631); experiment: as above
# 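Throughout, for SH2 binding enrichment of the phosphorylated peptide, bacterial display: peptide library displayed on the E. coli surface as eCPX fusions, selected cells deep-sequenced, score is each peptide's frequency after selection divided by its frequency in the input.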
# 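Throughout, for phosphorylation enrichment, bacterial display: 11-residue human phosphosite peptides and single-mutation variants displayed on the E. coli surface, counted by deep sequencing, each peptide's frequency after selection divided by its frequency in the unselected input library; frequency after pTyr selection over input frequency; kinase dosed for 20-30% of maximal phosphorylation in three min.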
# Hck, sequence (P08631 whole entry, looked up, the tested form may be a part): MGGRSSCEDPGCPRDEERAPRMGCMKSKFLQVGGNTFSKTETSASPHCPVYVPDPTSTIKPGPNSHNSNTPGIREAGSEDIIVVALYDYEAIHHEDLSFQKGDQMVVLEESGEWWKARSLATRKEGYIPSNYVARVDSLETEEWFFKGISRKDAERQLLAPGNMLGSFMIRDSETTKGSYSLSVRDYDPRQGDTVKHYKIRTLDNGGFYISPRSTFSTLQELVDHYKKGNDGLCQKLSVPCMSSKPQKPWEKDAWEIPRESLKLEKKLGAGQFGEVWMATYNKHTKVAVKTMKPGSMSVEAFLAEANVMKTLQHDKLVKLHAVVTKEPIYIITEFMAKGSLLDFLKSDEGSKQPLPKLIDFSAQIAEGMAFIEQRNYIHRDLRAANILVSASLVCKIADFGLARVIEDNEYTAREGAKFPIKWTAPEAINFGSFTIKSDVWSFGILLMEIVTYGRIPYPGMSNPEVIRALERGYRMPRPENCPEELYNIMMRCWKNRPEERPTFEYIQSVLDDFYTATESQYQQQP
# MERTK, sequence (Q12866 whole entry, looked up): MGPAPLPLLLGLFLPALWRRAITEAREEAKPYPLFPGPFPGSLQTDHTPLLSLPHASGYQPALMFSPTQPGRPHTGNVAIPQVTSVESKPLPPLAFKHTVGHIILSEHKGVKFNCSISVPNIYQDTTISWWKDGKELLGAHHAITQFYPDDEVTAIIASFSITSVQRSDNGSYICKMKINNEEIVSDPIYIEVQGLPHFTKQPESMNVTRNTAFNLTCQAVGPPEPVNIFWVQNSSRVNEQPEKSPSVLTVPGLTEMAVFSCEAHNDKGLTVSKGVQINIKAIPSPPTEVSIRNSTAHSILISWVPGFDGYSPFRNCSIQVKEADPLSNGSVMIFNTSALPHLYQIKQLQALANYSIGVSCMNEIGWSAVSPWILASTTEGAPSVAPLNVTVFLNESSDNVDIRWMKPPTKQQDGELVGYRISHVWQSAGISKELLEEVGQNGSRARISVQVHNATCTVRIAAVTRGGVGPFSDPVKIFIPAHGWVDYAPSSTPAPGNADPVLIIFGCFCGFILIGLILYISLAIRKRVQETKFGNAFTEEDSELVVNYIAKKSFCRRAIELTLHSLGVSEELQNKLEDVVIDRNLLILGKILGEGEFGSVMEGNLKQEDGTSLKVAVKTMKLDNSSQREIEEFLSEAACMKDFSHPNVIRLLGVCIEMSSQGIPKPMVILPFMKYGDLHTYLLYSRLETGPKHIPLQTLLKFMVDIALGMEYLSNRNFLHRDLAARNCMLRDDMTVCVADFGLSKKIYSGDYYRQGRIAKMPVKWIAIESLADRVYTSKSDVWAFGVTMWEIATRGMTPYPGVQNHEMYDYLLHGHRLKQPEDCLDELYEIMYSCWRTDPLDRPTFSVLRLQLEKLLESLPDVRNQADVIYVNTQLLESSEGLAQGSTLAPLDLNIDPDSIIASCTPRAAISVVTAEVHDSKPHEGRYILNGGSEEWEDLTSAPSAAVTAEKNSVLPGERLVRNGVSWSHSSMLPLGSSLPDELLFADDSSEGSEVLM
# EPHB1, sequence (P54762 whole entry, looked up): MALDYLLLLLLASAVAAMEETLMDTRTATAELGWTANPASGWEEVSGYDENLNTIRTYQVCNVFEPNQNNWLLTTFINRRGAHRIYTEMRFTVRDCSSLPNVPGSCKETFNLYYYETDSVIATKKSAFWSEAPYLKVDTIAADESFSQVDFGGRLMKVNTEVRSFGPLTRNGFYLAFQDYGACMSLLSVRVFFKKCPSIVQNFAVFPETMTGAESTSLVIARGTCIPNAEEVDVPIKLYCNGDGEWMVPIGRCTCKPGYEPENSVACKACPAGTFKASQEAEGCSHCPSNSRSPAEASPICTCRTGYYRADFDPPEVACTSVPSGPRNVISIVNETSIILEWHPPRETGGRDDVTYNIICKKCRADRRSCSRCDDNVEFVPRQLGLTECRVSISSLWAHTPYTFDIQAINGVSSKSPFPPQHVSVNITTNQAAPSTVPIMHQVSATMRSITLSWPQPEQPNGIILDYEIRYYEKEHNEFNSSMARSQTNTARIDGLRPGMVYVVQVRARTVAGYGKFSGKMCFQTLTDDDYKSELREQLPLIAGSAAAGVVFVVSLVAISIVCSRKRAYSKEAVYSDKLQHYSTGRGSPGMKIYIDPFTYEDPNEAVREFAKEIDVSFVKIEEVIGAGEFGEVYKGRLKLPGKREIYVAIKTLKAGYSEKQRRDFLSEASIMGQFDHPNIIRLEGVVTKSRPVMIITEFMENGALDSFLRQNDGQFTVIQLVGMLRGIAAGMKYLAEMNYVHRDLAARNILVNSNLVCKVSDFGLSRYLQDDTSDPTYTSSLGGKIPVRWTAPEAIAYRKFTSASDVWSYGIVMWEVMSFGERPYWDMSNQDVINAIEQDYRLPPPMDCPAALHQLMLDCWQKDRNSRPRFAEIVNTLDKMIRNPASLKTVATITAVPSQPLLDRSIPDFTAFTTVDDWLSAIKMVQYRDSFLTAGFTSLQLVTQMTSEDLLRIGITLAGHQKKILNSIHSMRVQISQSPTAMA
# Grb2 SH2, sequence (P62993 whole entry, looked up): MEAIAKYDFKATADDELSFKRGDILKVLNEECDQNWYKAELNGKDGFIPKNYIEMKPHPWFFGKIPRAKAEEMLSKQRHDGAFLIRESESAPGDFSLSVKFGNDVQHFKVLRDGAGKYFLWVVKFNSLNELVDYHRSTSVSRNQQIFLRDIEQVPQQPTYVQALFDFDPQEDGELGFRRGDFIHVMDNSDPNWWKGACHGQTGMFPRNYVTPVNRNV
# EPHB2, sequence (P29323 whole entry, looked up): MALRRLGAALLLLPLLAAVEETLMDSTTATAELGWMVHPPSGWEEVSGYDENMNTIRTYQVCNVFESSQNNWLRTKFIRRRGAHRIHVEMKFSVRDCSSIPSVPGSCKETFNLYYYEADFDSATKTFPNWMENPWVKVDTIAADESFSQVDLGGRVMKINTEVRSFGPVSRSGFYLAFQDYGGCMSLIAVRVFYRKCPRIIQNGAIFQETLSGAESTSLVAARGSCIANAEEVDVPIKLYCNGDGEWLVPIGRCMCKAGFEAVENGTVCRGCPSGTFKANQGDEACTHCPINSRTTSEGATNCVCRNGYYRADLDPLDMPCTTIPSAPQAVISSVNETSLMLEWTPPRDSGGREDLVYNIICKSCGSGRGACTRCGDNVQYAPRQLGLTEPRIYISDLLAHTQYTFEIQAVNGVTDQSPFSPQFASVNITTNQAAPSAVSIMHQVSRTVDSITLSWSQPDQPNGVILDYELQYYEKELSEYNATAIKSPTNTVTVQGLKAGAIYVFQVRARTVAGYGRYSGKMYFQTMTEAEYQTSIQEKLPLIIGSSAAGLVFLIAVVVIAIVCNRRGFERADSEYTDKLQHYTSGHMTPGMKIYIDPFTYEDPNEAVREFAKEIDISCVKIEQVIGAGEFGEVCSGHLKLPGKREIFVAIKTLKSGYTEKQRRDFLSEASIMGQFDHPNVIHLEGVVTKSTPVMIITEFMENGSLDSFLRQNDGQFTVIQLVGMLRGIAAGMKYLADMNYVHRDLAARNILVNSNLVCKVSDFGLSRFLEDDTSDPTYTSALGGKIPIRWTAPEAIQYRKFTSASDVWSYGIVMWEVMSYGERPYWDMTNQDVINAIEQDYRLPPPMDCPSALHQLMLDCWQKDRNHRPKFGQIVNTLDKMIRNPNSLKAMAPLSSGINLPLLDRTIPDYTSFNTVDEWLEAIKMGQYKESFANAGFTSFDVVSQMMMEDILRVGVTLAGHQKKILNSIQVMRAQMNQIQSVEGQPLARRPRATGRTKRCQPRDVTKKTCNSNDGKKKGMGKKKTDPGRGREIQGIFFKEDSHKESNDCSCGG
# Fyn, sequence (P06241 whole entry, looked up): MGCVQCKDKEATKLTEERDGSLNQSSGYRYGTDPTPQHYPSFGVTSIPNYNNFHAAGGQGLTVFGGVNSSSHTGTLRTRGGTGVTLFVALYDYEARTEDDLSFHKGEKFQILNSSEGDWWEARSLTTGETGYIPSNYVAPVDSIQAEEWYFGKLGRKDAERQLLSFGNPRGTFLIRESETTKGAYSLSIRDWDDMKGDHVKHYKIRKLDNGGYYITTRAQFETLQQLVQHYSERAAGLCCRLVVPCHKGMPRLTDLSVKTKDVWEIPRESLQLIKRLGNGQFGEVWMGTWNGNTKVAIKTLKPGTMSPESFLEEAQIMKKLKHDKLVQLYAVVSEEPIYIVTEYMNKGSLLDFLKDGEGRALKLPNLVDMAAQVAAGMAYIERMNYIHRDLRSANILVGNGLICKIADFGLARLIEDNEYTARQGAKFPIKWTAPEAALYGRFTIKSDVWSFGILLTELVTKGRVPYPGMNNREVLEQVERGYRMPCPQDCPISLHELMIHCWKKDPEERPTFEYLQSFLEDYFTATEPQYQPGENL
Sequence,SH2 binding enrichment [1],SH2 binding enrichment [2],SH2 binding enrichment [3],phosphorylation enrichment [4],phosphorylation enrichment [5],phosphorylation enrichment [6],phosphorylation enrichment [7],phosphorylation enrichment [8],phosphorylation enrichment [9],phosphorylation enrichment [10],phosphorylation enrichment [11],phosphorylation enrichment [12],phosphorylation enrichment [13],phosphorylation enrichment [14],phosphorylation enrichment [15],phosphorylation enrichment [16]
NVVHEYSSELE [FGB_Y172_N170H],0.908,0.637,1.48,0.519,0.544,0.705,1.02,1.1,0.649,0.987,0.436,0.472,0.656,1.02,0.473,0.481
LVVFEYMRHGD [NTRK1_Y591_M587V],1.2,1.35,0.725,0.456,0.577,0.625,0.761,1.03,0.374,0.476,0.46,0.486,0.556,0.875,0.392,0.475
GNHVSYYQSDG [CACNA1C_Y1757],0.806,0.802,0.902,0.49,0.557,0.81,0.667,0.762,0.574,0.621,0.462,0.718,0.485,0.774,0.81,0.57
HDKEFYSVHNK [MET_Y1235_Y1230H_YF],0.734,0.466,0.395,0.629,0.455,0.549,0.513,0.842,0.429,0.309,0.646,0.804,0.643,1.14,0.467,1.03
DNQFAYLKAII [HNF4A_Y288_E285Q_YF],0.782,0.62,0.353,0.592,0.43,0.702,1.02,1.33,0.372,0.711,0.396,0.473,0.595,1.16,0.369,0.393
EVKAQYEDIAQ [KRT1_Y358],1.15,0.64,11.6,0.761,0.546,0.748,1.06,1.26,0.516,0.774,0.556,0.593,0.539,1.22,0.435,0.69
TSAEGYQDVRD [ABLIM1_Y439_P434T],0.909,0.779,4.85,0.551,0.73,0.659,1.16,1.36,0.602,0.766,0.679,0.77,0.774,1.17,0.517,0.691
GDKENYGLPQP [BUB1_Y538_N534D],0.866,0.742,0.518,0.419,0.509,0.567,0.715,0.859,0.433,0.632,0.461,0.452,0.794,0.873,0.432,0.469
RNAAEYLLSSG [ABL1_Y139],0.998,0.595,0.566,0.596,0.38,0.446,0.667,0.723,0.34,0.353,0.35,0.456,0.345,0.765,0.294,0.48
SLQAHYDTPRS [DOK7_Y405_R402Q],0.916,0.636,5.05,0.593,0.435,0.38,0.53,0.539,0.368,3.19,0.366,0.352,0.479,0.513,0.529,0.37
ILTLKYPIKHG [ACTA1_Y71_E74K],1.12,1.46,0.787,0.413,0.426,0.497,0.558,0.588,0.341,0.367,0.431,0.449,0.518,0.523,0.344,0.349
EIRTQDEAMAS [GFAP_Y242_Y242D],0.811,0.772,0.575,0.353,0.515,0.57,0.945,0.755,0.408,0.489,0.43,0.498,0.42,0.688,0.457,0.443
SENAFYLSPDI [COL6A3_Y2827],0.739,0.698,0.475,0.724,0.793,0.841,1.68,1.21,0.607,1.49,0.607,0.762,0.687,1.69,0.754,0.687
FRGFSYDDIPD [TMEM230_Y112_YF],0.882,0.595,7.24,0.405,0.739,0.737,1.39,1.44,0.485,0.895,0.438,0.474,0.71,1.35,0.565,0.609
SIIKDSFHRGA [GATM_Y203_Y203S],0.838,0.829,0.482,0.403,0.342,0.462,0.404,0.414,0.387,0.497,0.369,0.379,0.334,0.423,0.362,0.394
KNNDGYTDFAE [MCFD2_Y135_I136T_YF],0.869,0.8,5.75,0.529,0.578,0.732,0.882,1.07,0.449,0.731,0.522,0.559,0.594,0.999,0.42,0.529
